From patent US20210292396A1

What was measured:
Assay in all cases: cell-based or functional assay
[1] = target: Env of HIV isolate C4118.09 (clade AE) (HIV)
[2] = target: Env of HIV isolate 426c (clade C) (HIV)
[3] = target: Env of HIV isolate CNE56 (clade AE) (HIV)
[4] = target: HIV Env of isolate ZM197.7 (HIV)
[5] = target: HIV Env of isolate ZM215.8 (HIV)
[6] = target: Env of HIV isolate 0013095-2.11 (clade C) (HIV)
[7] = target: Env of HIV isolate 263-8 (clade AG) (HIV)
[8] = target: Env of HIV isolate ZM55.28a (clade C) (HIV)
[9] = target: Env of HIV isolate BG505.W6M.C2 (clade A) (HIV)
[10] = target: HIV Env of isolate CAP256.206.C9 (HIV)
[11] = target: Env of HIV isolate 26191-2.48 (clade C) (HIV)
[12] = target: Env of HIV isolate 6644.v2.c33 (clade C) (HIV)
[13] = target: Envelope protein of SVA.MLV (clade NA)
[14] = target: Env of HIV isolate 16055-2.3 (clade C) (HIV)
[15] = target: Env of HIV isolate BJOX009000.02.4 (clade AE) (HIV)
[16] = target: Env of HIV isolate ZM106.9 (clade C) (HIV)
[17] = target: Env of HIV isolate YU2.DG (clade B) (HIV)
[18] = target: HIV Env of isolate 6471.v1.c16 (HIV)
[19] = target: Env of HIV isolate P1981.C5.3 (clade G) (HIV)
[20] = target: HIV Env of isolate CNE30 (HIV)
[21] = target: Env of HIV isolate 242-14 (clade AG) (HIV)
[22] = target: Env of HIV isolate Q842.d12 (clade A) (HIV)
[23] = target: Env of HIV isolate BX08.16 (clade B) (HIV)
[24] = target: Env of HIV isolate T255-34 (clade AG) (HIV)
[25] = target: Env of HIV isolate UG024.2 (clade D) (HIV)
[26] = target: Env of HIV isolate CNE3 (clade AE) (HIV)
[27] = target: Env of HIV isolate 0815.v3.c3 (clade ACD) (HIV)
[28] = target: Env of HIV isolate T253-11 (clade AG) (HIV)
[29] = target: Env of HIV isolate 6545.v4.c1 (clade AC) (HIV)
[30] = target: HIV Env of isolate CAP45.G3 (HIV)
[31] = target: Env of HIV isolate 620345.c1 (clade AE) (HIV)
[32] = target: Env of HIV isolate 16936-2.21 (clade C) (HIV)
[33] = target: HIV Env of isolate 3326.v4.c3 (HIV)
[34] = target: HIV Env of isolate 16845-2.22 (HIV)
[35] = target: Env of HIV isolate RHPA.7 (clade B) (HIV)
[36] = target: Env of HIV isolate TV1.29 (clade C) (HIV)
[37] = target: Env of HIV isolate T251-18 (clade AG) (HIV)
[38] = target: Env of HIV isolate R3265.c6 (clade AE) (HIV)
[39] = target: Env of HIV isolate BG1168.01 (clade B) (HIV)
[40] = target: HIV Env of isolate DU172.17 (HIV)
[41] = target: Env of HIV isolate 3468.v1.c12 (clade AD) (HIV)
[42] = target: Env of HIV isolate MN.3 (clade B) (HIV)
[43] = target: Env of HIV isolate TH976.17 (clade AE) (HIV)
[44] = target: HIV Env of isolate 6644.v2.c33 (HIV)
[45] = target: Env of HIV isolate QH0692.42 (clade B) (HIV)
[46] = target: HIV Env of isolate 0013095-2.11 (HIV)
[47] = target: Env of HIV isolate 3301.v1.c24 (clade AC) (HIV)
[48] = target: HIV Env of isolate 6838.v1.c35 (HIV)
[49] = target: Env of HIV isolate Q23.17 (clade A) (HIV)
[50] = target: Env of HIV isolate CAP210.E8 (clade C) (HIV)

B1: ePGT121.15 (ePGT121.15.H6 VH and ePGT121.15.L1 VL) (antibody, V domains shown)
VH: QMQLQESGPGLVKPGETLSLTCSVSGASISSSYWSWLRETPGKGLEWIGYTHHSGDTNYAPSLKSRVHLGLHPSKNQVSLSLTSVTAADTAVYYCARTLHGRRIYGVVAFNEFFTYFYWEVWGKGTQVTVSS
VL: SDISVAPGETVRISCGGESIGSRAVQWYQHRAGQAPKLIIYNNQDRPPGIPERFSGSPDIDFGTTATLTITNVEAGDEATYYCHIWDSRRPTNWVFGGGTTLTVL
IC50, pseudovirus neutralization [1]: > 50 µg/mL
IC50, pseudovirus neutralization [2]: 0.385 µg/mL
IC50, pseudovirus neutralization [3]: > 50 µg/mL
IC80, pseudovirus neutralization [4]: > 50 µg/mL
IC80, pseudovirus neutralization [5]: 0.047 µg/mL
IC50, pseudovirus neutralization [6]: 3.01 µg/mL
IC50, pseudovirus neutralization [7]: 0.014 µg/mL
IC50, pseudovirus neutralization [8]: 0.009 µg/mL
IC50, pseudovirus neutralization [9]: 0.066 µg/mL
IC80, pseudovirus neutralization [10]: 0.006 µg/mL
IC50, pseudovirus neutralization [11]: 0.005 µg/mL
IC50, pseudovirus neutralization [12]: 0.003 µg/mL
IC50, pseudovirus neutralization [13]: > 50 µg/mL
IC50, pseudovirus neutralization [14]: 0.029 µg/mL
IC50, pseudovirus neutralization [15]: 0.183 µg/mL
IC50, pseudovirus neutralization [16]: 0.002 µg/mL
IC50, pseudovirus neutralization [17]: 0.005 µg/mL
IC80, pseudovirus neutralization [18]: 6.35 µg/mL
IC50, pseudovirus neutralization [19]: 0.002 µg/mL
IC80, pseudovirus neutralization [20]: 0.027 µg/mL
IC50, pseudovirus neutralization [21]: 42.8 µg/mL
IC50, pseudovirus neutralization [22]: 0.003 µg/mL
IC50, pseudovirus neutralization [23]: 0.004 µg/mL
IC50, pseudovirus neutralization [24]: 0.045 µg/mL
IC50, pseudovirus neutralization [25]: 0.516 µg/mL
IC50, pseudovirus neutralization [26]: > 50 µg/mL
IC50, pseudovirus neutralization [27]: 0.002 µg/mL
IC50, pseudovirus neutralization [28]: 0.009 µg/mL
IC50, pseudovirus neutralization [29]: > 50 µg/mL
IC80, pseudovirus neutralization [30]: 24.1 µg/mL
IC50, pseudovirus neutralization [31]: > 50 µg/mL
IC50, pseudovirus neutralization [32]: 0.003 µg/mL
IC80, pseudovirus neutralization [33]: 5.05 µg/mL
IC80, pseudovirus neutralization [34]: 0.264 µg/mL
IC50, pseudovirus neutralization [35]: 0.003 µg/mL
IC50, pseudovirus neutralization [36]: 0.004 µg/mL
IC50, pseudovirus neutralization [37]: 0.056 µg/mL
IC50, pseudovirus neutralization [38]: > 50 µg/mL
IC50, pseudovirus neutralization [39]: > 50 µg/mL
IC80, pseudovirus neutralization [40]: 0.007 µg/mL
IC50, pseudovirus neutralization [41]: 0.002 µg/mL
IC50, pseudovirus neutralization [42]: 0.004 µg/mL
IC50, pseudovirus neutralization [43]: > 50 µg/mL
IC80, pseudovirus neutralization [44]: 0.008 µg/mL
IC50, pseudovirus neutralization [45]: 0.015 µg/mL
IC80, pseudovirus neutralization [46]: 11.9 µg/mL
IC50, pseudovirus neutralization [47]: 0.006 µg/mL
IC80, pseudovirus neutralization [48]: 1.34 µg/mL
IC50, pseudovirus neutralization [49]: 0.003 µg/mL
IC50, pseudovirus neutralization [50]: 0.052 µg/mL
